Laboratory results as given in publication PMC10449828, “Fanconi anemia associated protein 20 (FAAP20) plays an essential role in homology-directed repair of DNA double-strand breaks”.

Tests used:
FAAP20 = target: T1, FAAP20 (human, UniProt Q6NZ36 1-180); experiment: EMSA; FAAP20 9-24 nM; EMSA: 125 mM Tris pH 7.5, 5 mM EDTA, 6% glycerol, 1 mM DTT, 100 mM NaCl, 1 nM substrate, RT 45 min; 4% native PAGE in 1x TAE; conditions: protein: recombinant; tags: C-terminal 6xHis; label: 32P 5' (T4 PNK); single strand
T1 sequence: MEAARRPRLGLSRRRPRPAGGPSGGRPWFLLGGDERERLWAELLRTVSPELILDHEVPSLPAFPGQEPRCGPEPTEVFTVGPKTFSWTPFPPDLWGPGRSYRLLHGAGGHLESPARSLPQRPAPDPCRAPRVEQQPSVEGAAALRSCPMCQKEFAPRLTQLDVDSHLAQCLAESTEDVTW

FANCA;FAAP20 [1] = target: T2, FANCA;FAAP20 (human;human, UniProt O15360;Q6NZ36 1-1455;1-180, |); experiment: EMSA; FANCA 10 nM, FAAP20 9-24 nM; FAAP20 increases FANCA affinity; EMSA: 125 mM Tris pH 7.5, 5 mM EDTA, 6% glycerol, 1 mM DTT, 100 mM NaCl, 1 nM substrate, RT 45 min; 4% native PAGE in 1x TAE; conditions: protein: recombinant;recombinant; tags: none (native FANCA);C-terminal 6xHis; copies: 1;1; label: 32P 5' (T4 PNK); single strand
T2 sequence (O15360 whole entry, one chain of several): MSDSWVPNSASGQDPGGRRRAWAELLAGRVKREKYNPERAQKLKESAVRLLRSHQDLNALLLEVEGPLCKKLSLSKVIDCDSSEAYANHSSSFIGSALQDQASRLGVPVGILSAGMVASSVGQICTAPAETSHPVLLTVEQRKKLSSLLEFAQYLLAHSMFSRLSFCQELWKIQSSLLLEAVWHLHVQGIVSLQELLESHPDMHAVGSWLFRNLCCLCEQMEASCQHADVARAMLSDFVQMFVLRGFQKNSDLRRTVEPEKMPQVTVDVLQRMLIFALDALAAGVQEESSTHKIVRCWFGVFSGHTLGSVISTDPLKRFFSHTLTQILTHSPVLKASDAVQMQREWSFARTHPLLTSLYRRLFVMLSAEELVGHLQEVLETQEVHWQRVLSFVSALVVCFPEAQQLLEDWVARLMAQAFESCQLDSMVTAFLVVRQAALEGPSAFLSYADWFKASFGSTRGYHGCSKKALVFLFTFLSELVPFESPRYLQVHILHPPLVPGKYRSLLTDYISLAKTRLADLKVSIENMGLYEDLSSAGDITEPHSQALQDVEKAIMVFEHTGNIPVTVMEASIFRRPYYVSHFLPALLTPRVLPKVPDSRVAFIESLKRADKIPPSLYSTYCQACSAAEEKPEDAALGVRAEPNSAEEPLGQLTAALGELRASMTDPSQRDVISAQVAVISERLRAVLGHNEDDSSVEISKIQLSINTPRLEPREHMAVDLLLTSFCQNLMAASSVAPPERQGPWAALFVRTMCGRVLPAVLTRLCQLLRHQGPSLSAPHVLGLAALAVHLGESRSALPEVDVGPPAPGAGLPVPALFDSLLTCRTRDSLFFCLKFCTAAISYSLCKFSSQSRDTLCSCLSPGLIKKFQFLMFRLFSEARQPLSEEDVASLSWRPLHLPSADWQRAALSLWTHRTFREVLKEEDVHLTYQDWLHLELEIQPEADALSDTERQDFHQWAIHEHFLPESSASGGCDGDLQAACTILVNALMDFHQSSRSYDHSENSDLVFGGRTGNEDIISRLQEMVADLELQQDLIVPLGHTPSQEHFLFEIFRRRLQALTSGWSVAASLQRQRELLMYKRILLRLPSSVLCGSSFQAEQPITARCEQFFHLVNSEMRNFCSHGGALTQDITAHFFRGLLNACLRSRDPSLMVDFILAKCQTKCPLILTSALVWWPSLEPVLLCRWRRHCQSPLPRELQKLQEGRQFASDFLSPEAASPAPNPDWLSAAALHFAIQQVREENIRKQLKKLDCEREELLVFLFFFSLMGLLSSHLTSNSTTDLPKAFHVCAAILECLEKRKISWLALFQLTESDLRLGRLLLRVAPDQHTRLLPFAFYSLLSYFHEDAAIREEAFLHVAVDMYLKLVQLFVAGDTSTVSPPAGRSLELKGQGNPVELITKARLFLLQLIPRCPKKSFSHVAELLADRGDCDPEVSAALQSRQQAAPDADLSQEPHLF

FANCA;FANCG = FANCA;FANCG (human;human, UniProt O15360;O15287 1-1455;1-622, |); experiment: EMSA; 10 nM each; higher affinity than FANCA alone; EMSA: 125 mM Tris pH 7.5, 5 mM EDTA, 6% glycerol, 1 mM DTT, 100 mM NaCl, 1 nM substrate, RT 45 min; 4% native PAGE in 1x TAE; conditions: protein: recombinant;recombinant; tags: none (native FANCA);N-terminal 6xHis; copies: 1;1; label: 32P 5' (T4 PNK); single strand
Chain of FANCA;FANCG (O15360 whole entry, chain 1 of 2): as the sequence (O15360 whole entry, one chain of several) above
Chain of FANCA;FANCG (O15287 whole entry, chain 2 of 2): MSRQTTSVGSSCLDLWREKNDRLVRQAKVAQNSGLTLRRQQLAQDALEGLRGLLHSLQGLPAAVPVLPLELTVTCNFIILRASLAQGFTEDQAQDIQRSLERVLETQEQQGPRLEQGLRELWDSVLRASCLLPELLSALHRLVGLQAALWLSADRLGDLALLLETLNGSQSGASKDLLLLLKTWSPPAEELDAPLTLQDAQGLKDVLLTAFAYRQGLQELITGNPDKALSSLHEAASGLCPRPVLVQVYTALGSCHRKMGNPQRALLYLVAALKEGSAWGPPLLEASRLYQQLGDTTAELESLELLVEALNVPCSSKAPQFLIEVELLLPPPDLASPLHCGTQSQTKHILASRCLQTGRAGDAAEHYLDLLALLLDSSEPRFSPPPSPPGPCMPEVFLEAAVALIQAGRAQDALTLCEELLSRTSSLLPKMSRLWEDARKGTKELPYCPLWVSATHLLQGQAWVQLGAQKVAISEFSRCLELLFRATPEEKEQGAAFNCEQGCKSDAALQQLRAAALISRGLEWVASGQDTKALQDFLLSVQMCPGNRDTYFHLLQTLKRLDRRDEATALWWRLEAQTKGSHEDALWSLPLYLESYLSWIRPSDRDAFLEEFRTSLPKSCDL

FANCA;FAAP20;FANCG = FANCA;FAAP20;FANCG (human;human;human, UniProt O15360;Q6NZ36;O15287 1-1455;1-180;1-622, ||); experiment: EMSA; 10 nM each; slightly additive over FANCA+FANCG or FANCA+FAAP20; EMSA: 125 mM Tris pH 7.5, 5 mM EDTA, 6% glycerol, 1 mM DTT, 100 mM NaCl, 1 nM substrate, RT 45 min; 4% native PAGE in 1x TAE; conditions: protein: recombinant;recombinant;recombinant; tags: none (native FANCA);C-terminal 6xHis;N-terminal 6xHis; label: 32P 5' (T4 PNK); single strand
Chain of FANCA;FAAP20;FANCG (O15360 whole entry, chain 1 of 2): as the sequence (O15360 whole entry, one chain of several) above
Chain of FANCA;FAAP20;FANCG (O15287 whole entry, chain 3 of 2): as the sequence (O15287 whole entry, chain 2 of 2) above

FANCA;FAAP20 [2] = target: T2, FANCA;FAAP20; experiment: EMSA; fixed suboptimal FANCA, FAAP20 titrated; binding stimulated; EMSA: 125 mM Tris pH 7.5, 5 mM EDTA, 6% glycerol, 1 mM DTT, 100 mM NaCl, 1 nM substrate, RT 45 min; 4% native PAGE in 1x TAE; conditions: protein: recombinant;recombinant; tags: none (native FANCA);C-terminal 6xHis; copies: 1;1; label: 32P 5' (T4 PNK); single strand
FANCA;FAAP20 [3] = target: T2, FANCA;FAAP20; experiment: EMSA; FANCA 10 nM, FAAP20 9-24 nM; binding stimulated; EMSA: 125 mM Tris pH 7.5, 5 mM EDTA, 6% glycerol, 1 mM DTT, 100 mM NaCl, 1 nM substrate, RT 45 min; 4% native PAGE in 1x TAE; conditions: protein: recombinant;recombinant; tags: none (native FANCA);C-terminal 6xHis; copies: 1;1; label: 32P 5' (T4 PNK); fork, 25 bp duplex; unpaired 3' arm 30 nt (strand 1) and 5' arm 25 nt (strand 2); 1 nt 3' overhang on strand 2 as printed

B1: EMSA ssDNA 61-mer (ssDNA)
DNA: GACGCTGCCGAATTCTACCAGTGCCTTGCTAGGACATCTTTGCCCACCTGCAGGTTCACCC
binding result (FAAP20): no binding | binding result (FANCA;FAAP20 [1]): binds | binding result (FANCA;FANCG): binds | binding result (FANCA;FAAP20;FANCG): binds

B2: EMSA ssRNA 61-mer (ssRNA)
RNA: GACGCUGCCGAAUUCUACCAGUGCCUUGCUAGGACAUCUUUGCCCACCUGCAGGUUCACCC
binding result (FANCA;FAAP20 [2]): binds

B3: splayed arm DNA (mixed)
DNA 1: GTCCTCCACCGCAGCCCACCTGCCCACCTTGTTGCTGATCTCAATCAGCTCTGGA
DNA 2: GCTGGCACGGTCGGATTTAAAGTTAGGGCAGGTGGGCTGCGGTGGAGGACG
binding result (FANCA;FAAP20 [3]): binds
